Results from US20170334954A1.

How the values were obtained:
[1] = biological target: human polyclonal IgG (Gammanorm) (human); experiment: column 10% breakthrough capacity, ligand content 9.7 mg/ml; 1.0 M NaOH; ratio to reference Zvar4
[2] = biological target: human polyclonal IgG (Gammanorm) (human); experiment: column 10% breakthrough capacity, ligand on agarose beads, ligand content 9.7 mg/ml; after 24 h in 0.5 M NaOH
[3] = biological target: human polyclonal IgG (Gammanorm) (human); experiment: column 10% breakthrough capacity, ligand on agarose beads, ligand content 9.7 mg/ml, 6 min residence time; before NaOH
[4] = biological target: human polyclonal IgG (Gammanorm) (human); experiment: column 10% breakthrough capacity, ligand on agarose beads, ligand content 9.7 mg/ml; after six 4 h cycles in 1.0 M NaOH
[5] = biological target: human polyclonal IgG (Gammanorm) (human); experiment: column 10% breakthrough capacity, ligand on agarose beads, ligand content 9.7 mg/ml, 6 min residence time; before NaOH; remark: listed apart in the source
[6] = biological target: human polyclonal IgG (Gammanorm) (human); experiment: column 10% breakthrough capacity, ligand content 9.7 mg/ml; 0.5 M NaOH; ratio to reference Zvar4
[7] = biological target: human polyclonal IgG (Gammanorm) (human); experiment: column 10% breakthrough capacity, ligand on agarose beads, ligand content […], 6 min residence time; before NaOH
[8] = biological target: human polyclonal IgG (Gammanorm) (human); experiment: column 10% breakthrough capacity, ligand on agarose beads, ligand content 7.0 mg/ml, 6 min residence time; before NaOH
[9] = biological target: human polyclonal IgG (Gammanorm) (human); experiment: column 10% breakthrough capacity, ligand content 7.0 mg/ml; 0.5 M NaOH; ratio to reference Zvar4
[10] = biological target: human polyclonal IgG (Gammanorm) (human); experiment: column 10% breakthrough capacity, ligand on agarose beads, ligand content […]; after 24 h in 0.5 M NaOH
[11] = biological target: human polyclonal IgG (Gammanorm) (human); experiment: column 10% breakthrough capacity, ligand content […]; 0.5 M NaOH; ratio to reference Zvar4
[12] = biological target: human polyclonal IgG (Gammanorm) (human); experiment: column 10% breakthrough capacity, ligand on agarose beads, ligand content 7.0 mg/ml; after 24 h in 0.5 M NaOH
[13] = biological target: human polyclonal IgG (Gammanorm) (human); experiment: column 10% breakthrough capacity, ligand on agarose beads, ligand content […]; after six 4 h cycles in 1.0 M NaOH
[14] = biological target: human polyclonal IgG (Gammanorm) (human); experiment: column 10% breakthrough capacity, ligand on agarose beads, ligand content […], 6 min residence time; before NaOH; remark: listed apart in the source
[15] = biological target: human polyclonal IgG (Gammanorm) (human); experiment: column 10% breakthrough capacity, ligand on agarose beads, ligand content 7.2 mg/ml, 6 min residence time; before NaOH
[16] = biological target: human polyclonal IgG (Gammanorm) (human); experiment: column 10% breakthrough capacity, ligand content 7.2 mg/ml; 0.5 M NaOH; ratio to reference Zvar4
[17] = biological target: human polyclonal IgG (Gammanorm) (human); experiment: column 10% breakthrough capacity, ligand content […]; 1.0 M NaOH; ratio to reference Zvar4
[18] = biological target: human polyclonal IgG (Gammanorm) (human); experiment: column 10% breakthrough capacity, ligand on agarose beads, ligand content 7.2 mg/ml; after 24 h in 0.5 M NaOH
[19] = biological target: human polyclonal IgG (Gammanorm) (human); experiment: column 10% breakthrough capacity, ligand content 10.8 mg/ml; 0.5 M NaOH; ratio to reference Zvar4
[20] = biological target: human polyclonal IgG (Gammanorm) (human); experiment: column 10% breakthrough capacity, ligand on agarose beads, ligand content 10.8 mg/ml, 6 min residence time; before NaOH
[21] = biological target: human polyclonal IgG (Gammanorm) (human); experiment: column 10% breakthrough capacity, ligand on agarose beads, ligand content 10.8 mg/ml; after 24 h in 0.5 M NaOH

Substance: Zvar(N11K, H18K, S33K, D37E, A42R, N43A, L44I, K50R, L51Y)4 with an additional N-terminal cysteine (agarose bead ligand) (designed binder)
- Capacity retention relative to ref. after six 4 h cycles [1]: 1.44
- Remaining IgG capacity Qb10 after six 4 h cycles [2]: 52 mg/mL
- Remaining IgG capacity after six 4 h cycles (%) [2]: 92%
- Initial IgG capacity Qb10 [3]: 62.1 mg/mL
- Remaining IgG capacity Qb10 after six 4 h cycles [4]: 48.1 mg/mL
- Remaining IgG capacity after six 4 h cycles (%) [4]: 77%
- Initial IgG capacity Qb10 [5]: 56.3 mg/mL
- Capacity retention relative to ref. after six 4 h cycles [6]: 1.53

Substance: Zvar(Q9A, N11E, N28A, N43A)4 with an additional N-terminal cysteine (agarose bead ligand) (designed binder)
- Initial IgG capacity Qb10 [7]: 50 mg/mL
- Initial IgG capacity Qb10 [8]: 49.1 mg/mL
- Capacity retention relative to ref. after six 4 h cycles [9]: 1.5
- Remaining IgG capacity Qb10 after six 4 h cycles [10]: 46.2 mg/mL
- Remaining IgG capacity after six 4 h cycles (%) [10]: 93%
- Capacity retention relative to ref. after six 4 h cycles [11]: 1.31
- Remaining IgG capacity Qb10 after six 4 h cycles [12]: 44.1 mg/mL
- Remaining IgG capacity after six 4 h cycles (%) [12]: 90%

Substance: Zvar(Q9A, N11E, Q40V, A42K, N43A, L44I)4 with an additional N-terminal cysteine (agarose bead ligand) (designed binder)
- Initial IgG capacity Qb10 [7]: 56.3 mg/mL
- Remaining IgG capacity Qb10 after six 4 h cycles [13]: 56 mg/mL
- Remaining IgG capacity after six 4 h cycles (%) [13]: 93%
- Initial IgG capacity Qb10 [14]: 60.3 mg/mL
- Initial IgG capacity Qb10 [15]: 49 mg/mL
- Capacity retention relative to ref. after six 4 h cycles [16]: 1.5
- Remaining IgG capacity Qb10 after six 4 h cycles [10]: 53.6 mg/mL
- Remaining IgG capacity after six 4 h cycles (%) [10]: 95%
- Capacity retention relative to ref. after six 4 h cycles [11]: 1.34
- Capacity retention relative to ref. after six 4 h cycles [17]: 1.67
- Remaining IgG capacity Qb10 after six 4 h cycles [18]: 44.2 mg/mL
- Remaining IgG capacity after six 4 h cycles (%) [18]: 90%

Substance: Zvar(Q9A, N11K, H18K, D37E, A42R)4 with an additional N-terminal cysteine (agarose bead ligand) (designed binder)
- Capacity retention relative to ref. after six 4 h cycles [19]: 1.3
- Initial IgG capacity Qb10 [20]: 56.9 mg/mL
- Remaining IgG capacity Qb10 after six 4 h cycles [21]: 52.5 mg/mL
- Remaining IgG capacity after six 4 h cycles (%) [21]: 92%
